# Test results reported in US20230176070A1.
# Positions count from the first letter of the chain named.
# B1: G52 (VHH)
# VHH: EVQLVESGGGLVQAGGSLRLSCAASGSTFSSKPIGWYRQAPGKGRDLVAAIGGGSSTFYVDSVKGRFTMSRDNAKNTVALQMNSLKPEDTAVYYCNEYLGPKVLPIGSWGQGTQVTVSS
# B2: G53 (VHH)
# VHH: HVQLVESGGGLVQAGGSLRLSCVASGFTYSTYTMGWFRQAPGKEREIVAAKNWSGARIYYTESVKGRFTISRDSGSNTMYLQMDSLKPEDTAVYYCAARLTWTDTTTPTTYPYWGQGTQVTVSS
# B3: G54 (VHH)
# VHH: QVQLVESGGGLVKPGESLKLSCVASGETLSSYIMGWFRQAPGKEREFVAAVSWSGNQQDYADSVKGRFTISRDNAEKTVDLQMNSLNPEDTAVYYCAGDQIGFWSSRTQAHEYEYWGQGTQVTVSS
# B4: G58 (VHH)
# VHH: EVQLVESGGGLVQAGGSLRLSCAGSGDTFSRYTLGWFRQAPGKEREFVAGISWSGGSTSYANSVKGRFTISRDNAKNTMYLQMNSLKPEDTAVYTCAAPGLPGTVVVGASDFYVYWGQGTQVTVSS
# B5: G64 (VHH)
# VHH: HVQLVESGGGLVQAGGSLRLSCKVSGTTFSNSAIGWYRQAPGNRRELVATINYGGSTNYADSGKGRFTISKDNAKNTVYLQMNSLKPEDTAVYYCKTTEWREDGYEYDVWGQGTQVTVSS
# B6: G65 (VHH)
# VHH: QVQLVESGGGLVQAGGSLRLSCATSGRTFSTYALGWFRQRPGKEREFVATIHWSDGRTLYADSVKGRFTLSRDNAQNTVYLQMNSLKPEDTAIYYCAASIYRIGSYDVSTSQGYDYWGQGTQVTVSS
# B7: G66 (VHH)
# VHH: B6 VHH with L34M, A61T, I93V, S99A, I100T, D115N
# B8: G67 (VHH)
# VHH: HVQLVESGGGLVQAGGSLRLSCVASGHTVSNYAMAWFRQAPGKEREFVAGISWRATLTYYRDSVKGRFTISRDNAKNTVYLQMSSLKPEDTAVYFCASDRTPYVSRGTSLVEYDYWGQGTQVTVSS
# B9: G68 (VHH)
# VHH: EVQLVESGGGLVQAGGSLRLSCTASGSIFSVNVMDWYRQAPGKQREFVATITGSGATNYADSVKGRFTISRGSAKNTVYLQMNSLKPDDTAVYYCHNADYREDGYEYDNWGQGTQVTVSS
# B10: G69 (VHH)
# VHH: QVQLVESGGGLVQAGGSLRLSCVDSGRTFSSNTMGWFRQAPGKDRDFVAAINRSGVITNYADSVKGRFTISRDNAKNTVYLQLNSLKPEDTAVYYCAARAGGWPSQIPVEYDRWGQGTQVTVSS
# B11: G70 (VHH)
# VHH: QVQLVESGGGLVQAGGSLRLSCAASGATFSINAIGWYRQAPGKQRELVAVIKSGNSINYADSVKGRFTISRDHAKNTVYLQMNNLKPEDTAVYYCHADQPPETGWGTWNDLWGQGTQVTVSS
# B12: G73 (VHH)
# VHH: EVQLVESGGGLVQAGGSLRLSCAASGRTFSDDAMAWFRQAPGKEREFVAAISWHPENTFYADSVKGRFTISRDKTKNTEYLQMNSLKPEDTAVYYCAAGPRLEIGDYAQYKYWGQGTQVTVSS
# B13: G77 (VHH)
# VHH: QVQLVESGGGLVQAGGSLRLSCTASRSTFRVNPAGWYRQAPGKERELVARITSGGSTNYADSVKGRFTISRDNAKNTVYLQMNSLKPEDTAVYYCNVPYYMEDGYEHDAWGQGTQVTVSS
# Biological target: glutathione S-transferase [GST: P08515]
# Assay: indirect ELISA, GST coated
# glutathione S-transferase [GST: P08515], sequence (P08515 whole entry): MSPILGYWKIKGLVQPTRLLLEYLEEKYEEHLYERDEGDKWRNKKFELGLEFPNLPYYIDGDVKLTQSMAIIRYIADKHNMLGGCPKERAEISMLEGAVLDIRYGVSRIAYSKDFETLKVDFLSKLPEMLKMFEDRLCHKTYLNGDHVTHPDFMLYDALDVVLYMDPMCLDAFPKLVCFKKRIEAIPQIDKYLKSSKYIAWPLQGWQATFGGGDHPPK
row,Binder,ELISA affinity (LogIC50 (oD450nm))
1,B1,1
2,B2,5.37
3,B3,1.54
4,B4,1.54
5,B5,5.68
6,B6,3.97
7,B7,4.29
8,B8,3.6
9,B9,1.07
10,B10,3.69
11,B11,1.75
12,B12,0.955
13,B13,6.01
